Drawing on paper PMC5964024, this text covers Kd for 1 substance.

Assay [1] deals with myc-tagged human CCR5 (wildtype) (human) (UniProt P51681). As to the kind of experiment: flow cytometry on cells.
Another assay concerns the target R5gp120-Hi (human) (UniProt P51681). As to the kind of experiment: flow cytometry on cells. (In general: In flow cytometry, cells or beads pass a laser one at a time.)

The term Kd denotes the free concentration of one partner at which half of the binding sites on the other are occupied at equilibrium, for simple one-to-one binding. A lower Kd goes with a tighter complex.

Take “BaL gp120-CD4-FLAG (from UniProt P01730 26-209) (ligand)”: the Kd in assay [1] came out at 32 nM; with R5gp120-Hi (human), 12 nM.
